Measurements taken from patent US20250340608A1 (PROTAGONIST THERAPEUTICS, published 2025).
Numbered stars: 1 amine (or outer) side, 2 acyl side, 3 side chain; on linkers, the order of the positions; unused ones are H or OH. Bridge positions count the residues as written; N and C are the ends. Square brackets hold non-standard residues; d marks the D form. Ends that are not written are not given here. * marks the point of attachment. Ida = iminodiacetic acid, O=C(CN(CC(=O)[*:3])[*:1])[*:2]; Myristoyl = CCCCCCCCCCCCCC(=O)*; β3hP = O=C(O)C[C@@H]1CCCN1; Isovaleryl = CC(C)CC(=O)*; Octanoyl = CCCCCCCC(=O)*; Albu = not defined here

Tests used:
[1] = molecular target: T1, human ferroportin (SLC40A1) fused in frame with GFP, stably expressed in HEK293 cells (human, UniProt Q9NP59 1-571); assay: cell-based or functional assay
T1 sequence (looked up): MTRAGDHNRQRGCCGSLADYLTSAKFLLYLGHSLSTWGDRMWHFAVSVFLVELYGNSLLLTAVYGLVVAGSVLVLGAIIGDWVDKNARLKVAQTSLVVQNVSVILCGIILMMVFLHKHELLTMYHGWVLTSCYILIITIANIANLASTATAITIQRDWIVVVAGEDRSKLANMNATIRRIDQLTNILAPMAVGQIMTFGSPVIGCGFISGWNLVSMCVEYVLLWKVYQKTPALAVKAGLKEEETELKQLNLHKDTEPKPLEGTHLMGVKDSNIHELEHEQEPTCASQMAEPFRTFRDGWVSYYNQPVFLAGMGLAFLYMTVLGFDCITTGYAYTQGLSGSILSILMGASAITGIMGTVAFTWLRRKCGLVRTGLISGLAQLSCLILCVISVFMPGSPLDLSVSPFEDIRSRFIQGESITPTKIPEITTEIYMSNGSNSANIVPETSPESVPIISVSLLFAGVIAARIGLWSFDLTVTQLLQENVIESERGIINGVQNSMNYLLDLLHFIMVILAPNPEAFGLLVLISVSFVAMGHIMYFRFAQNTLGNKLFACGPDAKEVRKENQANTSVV

[2] = molecular target: T1, human ferroportin (SLC40A1) fused in …; assay: cell-based or functional assay; remark: listed apart in the source

How did the “% Activity At 1 uM” value [1] turn out when H-DTHFPCIEK-NH2 (also: homodimer via disulfide between Cys6 of each monomer) [Compound 323] was run?
Its value is 0%.

What about the “EC50 (nM) (n = 3)” value [1] of the same binder?
The value was > 1000 nM.

B1: Compound 291 (peptide)
peptide: Isovaleryl-DTHFPCIKF-NH2
SMILES: CC[C@H](C)[C@H](NC(=O)[C@H](CS)NC(=O)[C@@H]1CCCN1C(=O)[C@H](Cc1ccccc1)NC(=O)[C@H](Cc1c[nH]cn1)NC(=O)[C@@H](NC(=O)[C@H](CC(=O)O)NC(=O)CC(C)C)[C@@H](C)O)C(=O)N[C@@H](CCCCN)C(=O)N[C@@H](Cc1ccccc1)C(N)=O
B1 was tested. Which “Potency EC50” value [2] did it give?
Its value is 0.007 µM.

And the “% Activity At 1 uM” value [1]?
The value was 100%.

And the “EC50 (nM) (n = 3)” value [1]?
The value was 7 nM.

Which “Potency EC50 (nM)” value [2] does the source give for H-DTHFPCIIA-NH2 [Compound 278] here?
The value was > 1000 nM.

How did the “Potency: % (activity) at 1 µM” value [2] turn out when H-LTHFPCIIF-NH2 [Compound 299] was run?
The value was 64%.

With Isovaleryl-DTHFPCIIF-NH2 (also: homodimer via disulfide between Cys6 of each monomer) [Compound 325] as the binder, how does the “% Activity At 1 uM” value [1] read?
The value was 100%.

Isovaleryl-DTAFPCIKFEPRSKEC-NH2 (disulfide 6-16 (inferred)) [Compound 267] was tested. Which “Potency EC50 (nM)” value [2] did it give?
The value was > 1000 nM.

How did the “Potency: % (activity) at 1 µM” value [2] turn out when H-ETHFPCIIF-NH2 [Compound 300] was run?
Its value is 77%.

Which “Potency: % (activity) at 1 µM” value [2] does the source give for H-DTHFPCIIK-NH2 [Compound 304] here?
The value was 55%.

And the “EC50 (nM) (n = 3)” value [1]?
Its value is > 1000 nM.

H-ATHFPCIIF-NH2 [Compound 284] was tested. Which “Potency EC50 (nM)” value [2] did it give?
The value was > 1000 nM.

B2: Compound 288 (peptide)
peptide: Isovaleryl-DTHFPCIIF-NH2
SMILES: CC[C@H](C)[C@H](NC(=O)[C@H](CS)NC(=O)[C@@H]1CCCN1C(=O)[C@H](Cc1ccccc1)NC(=O)[C@H](Cc1c[nH]cn1)NC(=O)[C@@H](NC(=O)[C@H](CC(=O)O)NC(=O)CC(C)C)[C@@H](C)O)C(=O)N[C@H](C(=O)N[C@@H](Cc1ccccc1)C(N)=O)[C@@H](C)CC
With B2 as the binder, how does the “% Activity At 1 uM” value [1] read?
Its value is 100%.

How did the “EC50 (nM) (n = 3)” value [1] turn out when H-DTHFPCIF-NH2 (also: homodimer via disulfide between Cys6 of each monomer) [Compound 312] was run?
The value was > 300 nM.

H-DTHFPCIIK-NH2 (also: homodimer via disulfide between Cys6 of each monomer) [Compound 318] was tested. Which “EC50 (nM) (n = 3)” value [1] did it give?
Its value is > 300 nM.

Which “EC50 (nM) (n = 3)” value [1] does the source give for H-DTHFPCIIR-NH2 (also: homodimer via disulfide between Cys6 of each monomer) [Compound 319] here?
Its value is 268 nM.

H-DTHFPCIEF-NH2 [Compound 287] was tested. Which “Potency EC50 (nM)” value [2] did it give?
The value was > 1000 nM.

With H-DTHFACIIF-NH2 [Compound 280] as the binder, how does the “Potency EC50 (nM)” value [2] read?
Its value is > 1000 nM.

With H-DTHFPCIKFF-NH2 [Compound 297] as the binder, how does the “Potency: % (activity) at 1 µM” value [2] read?
The value was 64%.

What about the “EC50 (nM) (n = 3)” value [1] of the same binder?
Its value is > 300 nM.

How did the “Potency EC50” value [2] turn out when Isovaleryl-HFPCIKFEPRSKGWVCK(Octanoyl)-NH2 (disulfide 4-16 (inferred)) [Compound 261] was run?
The value was > 0.3 µM.

How did the “Potency: % (activity) at 1 µM” value [2] turn out when H-DTHFPCIVF-NH2 [Compound 307] was run?
The value was 75%.

H-DTHFPCIKFF-NH2 (also: homodimer via disulfide between Cys6 of each monomer) [Compound 314] was tested. Which “EC50 (nM) (n = 3)” value [1] did it give?
The value was 130 nM.

What does the source list for H-DTKFPCIIF-NH2 [Compound 302]?
Potency: % (activity) at 1 µM [2]: 60%; EC50 (nM) (n = 3) [1]: > 1000 nM

How did the “Potency EC50” value [2] turn out when DTHFPCIKFKPRSKGWVC (N-terminal isovaleric acid; K10(lauric acid); C-terminal NH2) [Compound 248] was run?
Its value is 0.01 µM.

B3: Compound 358 (peptide)
peptide: DTHFPCIKFKPHSKECK
modifications: not fully specified; N-terminal isovaleric acid; K10(isoglu-Palm); C-terminal NH2
B3 was tested. Which “Potency EC50” value [2] did it give?
The value was 0.006 µM.

H-DTHFPCILF-NH2 [Compound 308] was tested. Which “Potency: % (activity) at 1 µM” value [2] did it give?
Its value is 89%.

Which “EC50 (nM) (n = 3)” value [1] does the source give for H-DTHFPCILK-NH2 (also: homodimer via disulfide between Cys6 of each monomer) [Compound 322] here?
Its value is > 300 nM.

For Isovaleryl-DTHFPCIKKEPHSKECK-NH2 (not fully specified (bridges); cysteine pairing not given here) [Compound 357], which “Potency EC50 (nM)” value [2] is on record?
The value was > 1000 nM.

How did the “Potency EC50 (nM)” value [2] turn out when [Ida]THF[β3hP]CIIF-NH2 [Compound 285] was run?
The value was > 1000 nM.

Which results are given for H-DTHFPCIF-NH2 [Compound 293]?
Potency: % (activity) at 1 µM [2]: 52%; EC50 (nM) (n = 3) [1]: > 1000 nM

With H-DTAFPCIIF-NH2 [Compound 283] as the binder, how does the “Potency EC50” value [2] read?
Its value is 0.739 µM.

For H-DTKFPCIIF-NH2 (also: homodimer via disulfide between Cys6 of each monomer) [Compound 317], which “EC50 (nM) (n = 3)” value [1] is on record?
The value was 137 nM.

DTHFPCIKFKPRSKGWVC (N-terminal isovaleric acid; K10(octanoic acid); C-terminal NH2) [Compound 250] was tested. Which “Potency EC50” value [2] did it give?
The value was 0.03 µM.

For [Ida]THFPCIKFEPRSKGWVCK(Myristoyl)-NH2 (disulfide 6-18 (inferred)) [Compound 254], which “Potency EC50” value [2] is on record?
Its value is 0.02 µM.

H-DTHFPCAIF-NH2 [Compound 279] was tested. Which “Potency EC50 (nM)” value [2] did it give?
Its value is > 1000 nM.

For Isovaleryl-DTHFPCIKFEPHSK(Albu)GCK-NH2 (disulfide 6-16 (inferred); reading uncertain) [Compound 265], which “Potency EC50” value [2] is on record?
The value was 0.006 µM.
